In test [1] the target is hIL-2Rα (human) (UniProt P01589). The test can be described thus: SPR, Biacore T200; hIL-2Rα on CM5 chip through His capture kit, binder as analyte. On the technique in general: In SPR one partner is held on a chip, and binding of the other changes the refractive index at the surface.
Test [2] deals with IL-2Rβγ on HEK-BLUE IL-2 reporter cells (UniProt P14784). The experiment in a line: cell-based or functional assay.
The target in test [3] is hIL-2Rαβγ on CTLL-2 cells (human) (UniProt P01589). The test can be described thus: cell-based or functional assay.
Test [4] addresses hIL-2Rβ (human) (UniProt P14784). The experiment in a line: SPR, Biacore T200; hIL-2Rβ as analyte; three-step format as the filing describes it.
Test [5] concerns the target hIL-2Rβγ (human) (UniProt P14784). The test can be described thus: SPR, Biacore T200; hIL-2Rβγ as analyte, single cycle kinetics; three-step format as the filing describes it.
The target of test [6] is membrane-bound human CD73 (human) (UniProt P21589). The test can be described thus: cell-based or functional assay.
In test [7] the target is hCD73 (human) (UniProt P21589). The test can be described thus: cell-based or functional assay.
For test [8], the target named is cyCD73. The experiment in a line: SPR, Biacore T200; binder captured on CM5 chip by human antibody capture kit, CD73 as analyte.
Test [9] concerns the target hCD73 (human) (UniProt P21589). The description is as above.

A word on the Kd: it is the equilibrium constant for the complex coming apart. A higher Kd goes with weaker binding.

Sequence of hCD73 (human) (P21589 27-549 limits assumed): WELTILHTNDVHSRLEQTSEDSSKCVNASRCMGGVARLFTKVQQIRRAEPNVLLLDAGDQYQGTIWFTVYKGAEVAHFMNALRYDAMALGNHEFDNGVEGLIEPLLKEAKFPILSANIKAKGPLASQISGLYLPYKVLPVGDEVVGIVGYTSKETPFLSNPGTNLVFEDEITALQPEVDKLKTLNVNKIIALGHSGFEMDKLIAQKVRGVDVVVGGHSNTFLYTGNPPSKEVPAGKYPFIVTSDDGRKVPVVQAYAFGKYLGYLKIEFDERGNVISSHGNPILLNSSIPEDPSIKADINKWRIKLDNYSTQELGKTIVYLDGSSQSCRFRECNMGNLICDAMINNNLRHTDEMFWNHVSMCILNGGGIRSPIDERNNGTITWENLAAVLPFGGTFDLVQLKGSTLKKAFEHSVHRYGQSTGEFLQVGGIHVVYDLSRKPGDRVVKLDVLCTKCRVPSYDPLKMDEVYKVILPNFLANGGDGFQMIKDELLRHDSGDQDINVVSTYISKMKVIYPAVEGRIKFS
Sequence of membrane-bound human CD73 (human) (P21589 27-549 limits assumed): as above
Sequence of hIL-2Rα (human) (P01589 22-213): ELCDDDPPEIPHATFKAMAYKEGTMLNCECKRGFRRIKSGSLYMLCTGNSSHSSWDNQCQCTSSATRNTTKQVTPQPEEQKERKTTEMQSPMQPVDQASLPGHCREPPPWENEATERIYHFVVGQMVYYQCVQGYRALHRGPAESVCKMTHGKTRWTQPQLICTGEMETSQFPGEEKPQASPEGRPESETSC
Sequence of IL-2Rβγ on HEK-BLUE IL-2 reporter cells (P14784 27-551, chain 1 of 2): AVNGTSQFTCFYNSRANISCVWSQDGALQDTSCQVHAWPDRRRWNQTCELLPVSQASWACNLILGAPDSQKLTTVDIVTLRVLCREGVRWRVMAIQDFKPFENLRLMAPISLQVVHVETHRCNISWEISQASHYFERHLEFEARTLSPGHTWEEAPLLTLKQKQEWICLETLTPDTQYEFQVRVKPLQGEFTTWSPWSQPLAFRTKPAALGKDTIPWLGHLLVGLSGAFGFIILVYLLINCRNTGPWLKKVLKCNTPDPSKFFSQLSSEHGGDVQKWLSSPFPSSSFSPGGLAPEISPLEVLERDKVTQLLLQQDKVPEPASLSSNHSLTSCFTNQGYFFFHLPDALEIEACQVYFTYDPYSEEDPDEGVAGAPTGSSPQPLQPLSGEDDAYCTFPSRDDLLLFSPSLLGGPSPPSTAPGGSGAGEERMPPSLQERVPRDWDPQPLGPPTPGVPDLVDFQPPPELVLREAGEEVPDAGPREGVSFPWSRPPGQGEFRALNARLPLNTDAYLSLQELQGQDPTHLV
Sequence of IL-2Rβγ on HEK-BLUE IL-2 reporter cells (P31785 23-369, chain 2 of 2, further chain): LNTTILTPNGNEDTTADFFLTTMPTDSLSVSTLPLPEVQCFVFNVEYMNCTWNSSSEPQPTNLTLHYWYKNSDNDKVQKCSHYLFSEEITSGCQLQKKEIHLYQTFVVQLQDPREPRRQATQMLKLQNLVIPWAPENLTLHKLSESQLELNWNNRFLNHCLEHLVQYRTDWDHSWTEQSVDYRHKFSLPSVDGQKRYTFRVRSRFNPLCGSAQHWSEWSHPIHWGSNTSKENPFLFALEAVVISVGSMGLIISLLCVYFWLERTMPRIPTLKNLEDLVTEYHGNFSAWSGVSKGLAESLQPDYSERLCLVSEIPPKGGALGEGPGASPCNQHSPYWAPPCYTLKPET
Sequence of hIL-2Rβ (human) (P14784 27-239): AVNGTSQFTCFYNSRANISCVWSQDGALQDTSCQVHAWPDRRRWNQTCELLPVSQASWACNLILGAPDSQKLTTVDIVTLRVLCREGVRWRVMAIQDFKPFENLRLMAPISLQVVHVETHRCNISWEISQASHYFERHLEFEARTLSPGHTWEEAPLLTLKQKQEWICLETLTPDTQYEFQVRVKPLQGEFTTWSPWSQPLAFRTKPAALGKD
Sequence of hIL-2Rβγ (human) (P14784 27-239, chain 1 of 2): as the sequence (P14784 27-239) above
Sequence of hIL-2Rβγ (human) (P31785 23-254, chain 2 of 2, further chain): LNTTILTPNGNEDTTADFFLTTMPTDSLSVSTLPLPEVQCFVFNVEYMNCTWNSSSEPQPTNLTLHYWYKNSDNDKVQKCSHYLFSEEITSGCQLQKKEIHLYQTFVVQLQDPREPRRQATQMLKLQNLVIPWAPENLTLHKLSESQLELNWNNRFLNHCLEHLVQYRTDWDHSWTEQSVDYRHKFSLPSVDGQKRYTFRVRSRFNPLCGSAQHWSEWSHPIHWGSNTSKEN
Sequence of hIL-2Rαβγ on CTLL-2 cells (human) (P01589 22-272, chain 1 of 3): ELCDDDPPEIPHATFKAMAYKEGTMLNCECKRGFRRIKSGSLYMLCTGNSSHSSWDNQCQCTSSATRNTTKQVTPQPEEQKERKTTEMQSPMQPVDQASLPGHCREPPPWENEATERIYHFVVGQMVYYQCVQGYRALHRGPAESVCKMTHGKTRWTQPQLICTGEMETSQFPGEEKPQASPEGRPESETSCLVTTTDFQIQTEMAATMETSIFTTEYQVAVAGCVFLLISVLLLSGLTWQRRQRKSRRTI
Sequence of hIL-2Rαβγ on CTLL-2 cells (human) (P14784 27-551, chain 2 of 3, further chain): as the sequence (P14784 27-551, chain 1 of 2) above
Sequence of hIL-2Rαβγ on CTLL-2 cells (human) (P31785 23-369, chain 3 of 3, further chain): as the sequence (P31785 23-369, chain 2 of 2, further chain) above

As for “Aldesleukin (trade name: PROLEUKIN, Novartis) (ligand)”, the dissociation constant Kd in test [1] was determined as 49.6 nM; in [4], 2080 nM; in [5], 0.01 nM. Also, the EC50, SEAP reporter (JAK-STAT pathway activation) in HEK-BLUE IL-2 reporter cells in [2] worked out at 0.0103 nM. In addition, the EC50, CTLL-2 cell proliferation (WST-1 absorbance) in [3] came out at 0.08 nM.

In test [6], “Oleclumab (Astrazeneca), produced on order from Ybiologics, Inc. (antibody)” showed an IC50, inhibition of membrane-bound CD73 enzyme activity on MDA-MB-231 cells (adenosine assay) of 1.47 nM. In addition, the IC50, inhibition of soluble CD73 enzyme activity (AMP-Glo assay, recombinant human CD73) in test [7] came to 0.03 nM. The Kd came out at 0.349 nM in test [8] and 0.101 nM in test [9].

Values taken from patent publication US20260061032A1.
